Publication PMC2424043, “Organelle-specific isoenzymes of plant V-ATPase as revealed by in vivo-FRET analysis” (BMC Cell Biology, 2008)
Like-named read-outs stand apart in the source and are kept apart here.

T1: VHA-c"1 (V-ATPase proteolipid subunit c", isoform 1) fused to CFP or YFP (A. thaliana, UniProt Q9SZY7 1-180)
T1 construct: VHA-c"1, A. thaliana, At4g32530, open reading frame without the stop codon; One molecule for the CFP and the YFP fusion; also called VHA-c"-CFP; VHA-c"-YFP; source: A. thaliana mesophyll protoplasts, transiently transfected, in living cells; not shown: CFP or YFP, C-terminal, kept
T1 sequence (looked up): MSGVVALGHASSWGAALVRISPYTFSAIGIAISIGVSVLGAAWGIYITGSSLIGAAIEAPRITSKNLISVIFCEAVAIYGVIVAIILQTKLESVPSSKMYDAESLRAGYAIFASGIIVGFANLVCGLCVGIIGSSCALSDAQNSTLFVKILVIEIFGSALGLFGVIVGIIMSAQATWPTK

B1: VHA-c3 (V-ATPase proteolipid subunit c, isoform 3) fused to CFP or YFP (natural protein, A. thaliana, UniProt P0DH93 1-164, looked up)
chain: MSTFSGDETAPFFGFLGAAAALVFSCMGAAYGTAKSGVGVASMGVMRPELVMKSIVPVVMAGVLGIYGLIIAVIISTGINPKAKSYYLFDGYAHLSSGLACGLAGLSAGMAIGIVGDAGVRANAQQPKLFVGMILILIFAEALALYGLIVGIILSSRAGQSRAE
notes: VHA-c3, A. thaliana, At4g38920, open reading frame without the stop codon; One molecule for the CFP and the YFP fusion; vectors 35S-CFP-NosT and 35S-YFP-NosT; List of constructs in Additional file 4; also called VHA-c-CFP; VHA-c-YFP; source: A. thaliana mesophyll protoplasts, transiently transfected, in living cells; not shown: CFP or YFP, C-terminal, kept

Experiments:
Assay in all cases: FRET or BRET; in vivo FRET by sensitized acceptor emission (confocal laser scanning microscopy) in co-transfected A. thaliana mesophyll protoplasts; CFP fusion as donor, YFP fusion as acceptor; a FRET value of 8-10% is taken as background
[1] = molecular target: VHA-a-YFP (Mesembryanthemum crystallinum V-ATPase subunit a fused to YFP) (Mesembryanthemum crystallinum)
[2] = molecular target: the molecule itself
[3] = molecular target: T1, VHA-c"1 (V-ATPase proteolipid subunit …); conditions: partners not purified
[4] = molecular target: VHA-a-YFP (Mesembryanthemum crystallinum V-ATPase subunit a fused to YFP) (Mesembryanthemum crystallinum); remark: listed apart in the source
[5] = molecular target: B1; conditions: partners not purified

Molecule | FRET efficiency [1] | FRET efficiency [2] [%] | FRET efficiency [3] [%] | FRET efficiency [4] [%] | FRET efficiency [5] [%]
VHA-A-CFP (V-ATPase catalytic subunit A fused to CFP) (from UniProt O23654 1-623) (natural protein) | 44.8 | – | – | – | –
B1 | – | 20.8 | – | – | –
VHA-c"_(trunc) (third and fourth helices of VHA-c"1) fused to CFP (domain or fragment, A. thaliana, UniProt Q9SZY7 88-180, looked up, VHA-c"1 aa 88-180 (helices 3 and 4), A. thaliana; Intermediate construct of the hybrid in vector 35S-CFP-C; fused to the C-terminus of the fluorescent protein; also called truncated VHA-c"; VHA-c"1_(trunc); source: A. thaliana mesophyll protoplasts, transiently transfected, in living cells; not shown: CFP, N-terminal, kept) QTKLESVPSSKMYDAESLRAGYAIFASGIIVGFANLVCGLCVGIIGSSCALSDAQNSTLFVKILVIEIFGSALGLFGVIVGIIMSAQATWPTK | – | – | 14.8 | – | –
VHA-c_(trunc) (third and fourth helices of VHA-c3) fused to CFP (domain or fragment, A. thaliana, UniProt P0DH93 80-164, looked up, VHA-c aa 80-164 (helices 3 and 4 of VHA-c3), A. thaliana; Intermediate construct of the hybrid in vector 35S-CFP-C; also called truncated VHA-c; truncated VHA-c-CFP; source: A. thaliana mesophyll protoplasts, transiently transfected, in living cells; not shown: CFP, C-terminal, kept) NPKAKSYYLFDGYAHLSSGLACGLAGLSAGMAIGIVGDAGVRANAQQPKLFVGMILILIFAEALALYGLIVGIILSSRAGQSRAE | – | – | 46.2 | 40.2 | 40.3
VHA-e1 (V-ATPase subunit e, isoform 1) fused to CFP or YFP (natural protein, A. thaliana, UniProt Q9FLN5 1-70, looked up, VHA-e1, A. thaliana, At5g55290, open reading frame without the stop codon; One molecule for the CFP and the YFP fusion; also called VHA-e isoform 1; AtVHA-e1; source: A. thaliana mesophyll protoplasts, transiently transfected, in living cells; not shown: CFP or YFP, C-terminal, kept) MGFLITTLIFVVVGIIASLCVRICCNRGPSTNLLHLTLVITATVCCWMMWAIVYIAQMNPLIVPILSETE | – | – | – | 20 | ~20
VHA-e2 (V-ATPase subunit e, isoform 2) fused to CFP or YFP (natural protein, A. thaliana, UniProt Q9SZ13 1-70, looked up, VHA-e2, A. thaliana, At4g26710, open reading frame without the stop codon; One molecule for the CFP and the YFP fusion; also called VHA-e isoform 2; VHA-e2-CFP; source: A. thaliana mesophyll protoplasts, transiently transfected, in living cells; not shown: CFP or YFP, C-terminal, kept) MAFVVTSLIFAVVGIIASICTRICFNKGPSTNLLHLTLVITATVCCWMMWAIVYIAQMNPLIVPILSEVE | – | – | 20 | 20 | ~20
